In the supplement of paper PMC7125110:
± gives the standard error. Fewer inactive variants are shown than the library holds.

B1: glmS ribozyme (parent)
chain: AUAAAAGCGCCAGAACUACAGAAAUGUAGUUGACGAGGAGGAGGUUUAUCGAAUUUUCGGCGGAUGCCUCCAAA

Variants of: B1
Assay: self-cleavage kobs at 2500 uM GlcN6P; higher = faster cleavage; RNA array
Details: with glucosamine-6-phosphate
Outline: (§1)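 Sequenced MiSeq chips were the platform: E. coli RNA polymerase transcribed barcoded ribozyme variants on them in situ, and a hybridised Cy3 probe tracked these at 37 °C. After glucosamine-6-phosphate (40 μM to 10 mM) in HEPES/KCl/Mg(OAc)2 buffer was flowed in, tiles were imaged over ~14 h. Signals normalised to baseline and to non-cleaving reference variants were reduced to per-tile medians and fit to one- or two-exponential decays to obtain kobs. kcat and KM were derived through weighted Michaelis–Menten fits across concentrations.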

Variant	self-cleavage kobs at 2500 uM GlcN6P
C34A A42C A52U C71A	< 1e-05 s⁻¹
U31A A48G G59A	0.000108 ± 3.6e-05 s⁻¹
U31C C34A G41U U57G G60C	< 1e-05 s⁻¹
G32U U55G C70U	0.000141 ± 5e-05 s⁻¹
G38U U45G G51A C67U	< 1e-05 s⁻¹
A42U A53G C61G	< 1e-05 s⁻¹
G29C G38U U56C	< 1e-05 s⁻¹
A33G U47G G66A	< 1e-05 s⁻¹
U47A A53G C70A	0.000177 ± 4e-05 s⁻¹
G32A G44U U49A G63A	< 1e-05 s⁻¹
G41U U47C G51U	< 1e-05 s⁻¹
U30G U56G C71A	0.000262 ± 6.3e-05 s⁻¹
A52U C67A C71U	7.56e-05 ± 3.1e-05 s⁻¹
G32C G66U C70A	< 1e-05 s⁻¹
G32U G38C G40C U57C C67A	< 1e-05 s⁻¹
U30A G37A G59C	< 1e-05 s⁻¹
A33G C34U U49A	< 1e-05 s⁻¹
U56A U57C C67A	4.71e-05 ± 2e-05 s⁻¹
A33U G40C U46G C50U	< 1e-05 s⁻¹
G38A C50G A52G	4.75e-05 ± 1.6e-05 s⁻¹
G35A C50U	2.72e-05 ± 1.2e-05 s⁻¹
G41A U46A G66A	9.01e-05 ± 3.1e-05 s⁻¹
C50U C58A C70G	7.55e-05 ± 2.9e-05 s⁻¹

Variant	self-cleavage kobs at 2500 uM GlcN6P
G41C A48C A64G	< 1e-05 s⁻¹
U57A G59U G66U	< 1e-05 s⁻¹
G41U G43C G51U C68G	< 1e-05 s⁻¹
G29U U57A	4.22e-05 ± 1.5e-05 s⁻¹
A48G U69G	0.000101 ± 3.7e-05 s⁻¹
G37A G43C C58G	< 1e-05 s⁻¹
G32C A39G A53G G62A	< 1e-05 s⁻¹
U31G U45C	0.000406 ± 0.00014 s⁻¹
U46A U56G C58U G59U	< 1e-05 s⁻¹
G32A G35A C61U C71U	< 1e-05 s⁻¹
C34A A39C G66C C71A	< 1e-05 s⁻¹
U31A U46C	0.000756 ± 0.00018 s⁻¹
A33G U56C G60A	< 1e-05 s⁻¹
G35C A48G G51U U57G G60U	< 1e-05 s⁻¹
G44U U46A	0.000112 ± 3.8e-05 s⁻¹
U30G G43U A52G C67A U69G	< 1e-05 s⁻¹
G38C U56A C67G C68G	0.000115 ± 4.5e-05 s⁻¹
C50A U65G C67A	8.64e-05 ± 2.2e-05 s⁻¹
G41U C50U G51U	< 1e-05 s⁻¹
U31C G32C A39G	0.000381 ± 0.00015 s⁻¹
A33G G38U G44A C67G C71U	< 1e-05 s⁻¹
G35C G41A G44A G66A	< 1e-05 s⁻¹
G44U U46G C67A	0.00376 ± 0.00093 s⁻¹

Variant	self-cleavage kobs at 2500 uM GlcN6P
G41C G43C U47A A64G	< 1e-05 s⁻¹
G44A G66U C67G	0.00142 ± 0.00035 s⁻¹
G32U U56G C71A	9.14e-05 ± 2e-05 s⁻¹
G43A G44A U47A G59C	< 1e-05 s⁻¹
G35C G37C U54A G66U	< 1e-05 s⁻¹
U30A U56A G60U	< 1e-05 s⁻¹
G59U G62C C71A	< 1e-05 s⁻¹
G43A C50G U69G	< 1e-05 s⁻¹
G38A U56G	< 1e-05 s⁻¹
A53G A64G C67G	0.000335 ± 9.1e-05 s⁻¹
G32A U45G G51C	< 1e-05 s⁻¹
A52G C68U C70U	0.000745 ± 0.00024 s⁻¹
U30G G43U U45A C68U	0.000375 ± 9.4e-05 s⁻¹
U31G G32A U46G A52U	< 1e-05 s⁻¹
U56C A64U U65C	< 1e-05 s⁻¹
G29C U49G C61U	< 1e-05 s⁻¹
G29C G40A U56G	4.42e-05 ± 1.1e-05 s⁻¹
A33U C34A G38A C50A C70G	0.00153 ± 0.0004 s⁻¹
A33C G40U G62A C70G	< 1e-05 s⁻¹
U57A C58A C70G	0.000143 ± 3.9e-05 s⁻¹
G44C G51A U55C U56C	< 1e-05 s⁻¹
G41U U56C C70G	0.00166 ± 0.00032 s⁻¹
U45G U57G C68A C70A	< 1e-05 s⁻¹

Variant	self-cleavage kobs at 2500 uM GlcN6P
G32A U69G C70G C71U	0.00186 ± 0.00064 s⁻¹
U30C U45G C70U	7.88e-05 ± 1.9e-05 s⁻¹
G35U A42U U49A A53U	< 1e-05 s⁻¹
G44U U46G C70U C71G	< 1e-05 s⁻¹
U47G A52C G60C C71A	< 1e-05 s⁻¹
G40A U55A U56C	0.000458 ± 0.00017 s⁻¹
G51A A53C G62U	< 1e-05 s⁻¹
C34G G38A G44U G63A	< 1e-05 s⁻¹
A36C U47G A52G G60C	< 1e-05 s⁻¹
G63C A64C C67A	< 1e-05 s⁻¹
C34U G40C G43A	< 1e-05 s⁻¹
G37A A53U U55G	0.000444 ± 9.3e-05 s⁻¹
G44C A53U U54G	7.38e-05 ± 2e-05 s⁻¹
A48U G51A U57A	< 1e-05 s⁻¹
U30G G37A A42U	6.68e-05 ± 1.2e-05 s⁻¹
A39G U47G C68G	5.94e-05 ± 2.4e-05 s⁻¹
A39C G44C C67A	0.000176 ± 4.5e-05 s⁻¹
G38A G62A G63U	< 1e-05 s⁻¹
A52U C68U C70U	5.68e-05 ± 1.7e-05 s⁻¹
G41C A42G C70A	6.34e-05 ± 1.5e-05 s⁻¹
U31C G37U U65A	< 1e-05 s⁻¹
U30C U31C A53U U55A	0.00034 ± 7.2e-05 s⁻¹
G37C G60C C68G	< 1e-05 s⁻¹

Variant	self-cleavage kobs at 2500 uM GlcN6P
U47G A48U U56G C68A	0.000324 ± 0.00012 s⁻¹
A39U U65C C70G	0.000144 ± 3.7e-05 s⁻¹
U31G G32U C71U	0.000775 ± 0.00015 s⁻¹
G32U G40C A42G	7.39e-05 ± 1.8e-05 s⁻¹
C67A C68U C70U	2.78e-05 ± 1.3e-05 s⁻¹
U30G A53C U54A	0.000695 ± 0.00017 s⁻¹
G37U G38C U55C	< 1e-05 s⁻¹
A52C A53G U57G C70G	5.76e-05 ± 2.3e-05 s⁻¹
U31C A36U	< 1e-05 s⁻¹
G29U U57A C68G	8.07e-05 ± 2.8e-05 s⁻¹
U31C G32A G38C G43A	< 1e-05 s⁻¹
U46G C61A C70G	< 1e-05 s⁻¹
G29U U45G C71U	0.000117 ± 5e-05 s⁻¹
G41A A53G U55A	0.000666 ± 0.00022 s⁻¹
G40U A48U A52U	< 1e-05 s⁻¹
G43A U54A	3.85e-05 ± 1.7e-05 s⁻¹
G43U U47G G59C	< 1e-05 s⁻¹
U30G U55A C61G C71G	5.45e-05 ± 2.4e-05 s⁻¹
A36G G41U G60A	< 1e-05 s⁻¹
G38U G41U G59C U65A	< 1e-05 s⁻¹
U45A U55C U57C	8.32e-05 ± 1.8e-05 s⁻¹

Variants of: B1
Assay: self-cleavage kobs at 10000 uM GlcN6P; higher = faster cleavage; RNA array
Details: with glucosamine-6-phosphate
Outline: as §1

Variant	self-cleavage kobs at 10000 uM GlcN6P
A6G G29U G43C C61U C67U	< 1e-05 s⁻¹
A6U A36C C58G	< 1e-05 s⁻¹
A6G C8U U30A G40C A64C U65A	< 1e-05 s⁻¹
C8A A39G G41U G66U C67G	< 1e-05 s⁻¹
G9C C34A U55C	< 1e-05 s⁻¹
G7A U55A G66A C67U U69G	0.000476 ± 0.00013 s⁻¹
C8A G29U A52U U55A C71G	< 1e-05 s⁻¹
A12C C61U G66U	< 1e-05 s⁻¹
G9A A53C G62A C70G	< 1e-05 s⁻¹
G35A C50U	4.87e-05 ± 8e-06 s⁻¹
A12G G51C G60U	< 1e-05 s⁻¹
A48G U69G	3.66e-05 ± 1.3e-05 s⁻¹
C10A G29U U55G C68G	3.81e-05 ± 1.8e-05 s⁻¹
G7A U31C C50U U65G	< 1e-05 s⁻¹
A6C U31C G63U C71G	< 1e-05 s⁻¹
C10A G13U G44A	< 1e-05 s⁻¹
C11G U30A U57G	< 1e-05 s⁻¹
G7C A39C C61A C67A	< 1e-05 s⁻¹
G44U U46A	0.000117 ± 2.9e-05 s⁻¹
C8G G32U G43A C68G	< 1e-05 s⁻¹
C11U A39G C58G	7.12e-05 ± 1.7e-05 s⁻¹

Variant	self-cleavage kobs at 10000 uM GlcN6P
C8G A33U U56A	< 1e-05 s⁻¹
A6C A12C C58G	< 1e-05 s⁻¹
C10G C16G A53G C68U	< 1e-05 s⁻¹
C11A A33C A42C C50G	< 1e-05 s⁻¹
A6C G35C A52C G66U	< 1e-05 s⁻¹
C11U G38C C50A A53G G60C C68U	< 1e-05 s⁻¹
A12G G13U U56G C61U C68G C70A	4.15e-05 ± 1.7e-05 s⁻¹
A6G A33C A64G	< 1e-05 s⁻¹
A12U A15G U46G	0.00932 ± 0.0019 s⁻¹
G7A G35A A36G	< 1e-05 s⁻¹
A6G A14G A53C	7.6e-05 ± 2.3e-05 s⁻¹
C8U G41U A48U C71G	< 1e-05 s⁻¹
C11A U30C A39G	0.000114 ± 2.3e-05 s⁻¹
A12G C50U A52G U69G C71A	3.23e-05 ± 1.6e-05 s⁻¹
U30G G37A A42U	9.36e-05 ± 2.3e-05 s⁻¹
C11U C50G C70G	3.88e-05 ± 1.4e-05 s⁻¹
A12U G13U G29C	3.79e-05 ± 1.5e-05 s⁻¹
A12C G29C G43C	< 1e-05 s⁻¹
C10A G32A G60C G63A	< 1e-05 s⁻¹
A12C A15U A52G	0.000174 ± 3.6e-05 s⁻¹
U47G A48U U56G C68A	4.62e-05 ± 1.6e-05 s⁻¹

Variant	self-cleavage kobs at 10000 uM GlcN6P
C67A C68U C70U	6.71e-05 ± 1.9e-05 s⁻¹
A12C C16A C67U	0.000164 ± 3.3e-05 s⁻¹
U31C A36U	< 1e-05 s⁻¹
A12C G13U C61U G62U	< 1e-05 s⁻¹
A6U G7C A14G U57C	< 1e-05 s⁻¹
G9C G43C C67U	< 1e-05 s⁻¹
A6C U49A	< 1e-05 s⁻¹
C8G G40C G59C C67G C71U	< 1e-05 s⁻¹
C10A C58G G60A U69G	5.7e-05 ± 1.6e-05 s⁻¹
G7A C11G A14C A48G A64G	< 1e-05 s⁻¹
A12C G41A U46G	0.000334 ± 7.8e-05 s⁻¹
G9U A14C A36C U46A	< 1e-05 s⁻¹
C11A G41U G43U G44A G51C G63A	< 1e-05 s⁻¹
G9C U46G A53U U55G	< 1e-05 s⁻¹
C8A G41U U46G G63A	< 1e-05 s⁻¹
G7C U55G U56C U69A	< 1e-05 s⁻¹
U45A U55C U57C	0.00033 ± 7.3e-05 s⁻¹
C11U A53G G60A	< 1e-05 s⁻¹
G9U A15U A42C U57G	< 1e-05 s⁻¹
